From patent publication US20230093708A1, “PROTEIN NANOPARTICLE DESIGN AND APPLICATION” (Duke University, priority 2020, published 2023)
Non-standard residues stand in square brackets, D forms with d. Phe(4-N3) = [N-]=[N+]=Nc1ccc(C[C@H](N)C(=O)O)cc1

Tests used:
Format in all cases: physicochemical
[1] = DLS of native and crosslinked pAzF diblock constructs in PBS and GuHCl
Source text: We wanted to thoroughly investigate the effects of pAzF-introduction as well as nanoparticle crosslinking on nanoparticle self-assembly. For this, we started by characterizing solely our five different ELP/RLP diblock architectures without any C-terminal functionalization. After expression and purification of the diblock constructs using ITC, the pAzF-containing constructs were crosslinked in solution by exposure to UV irradiation and characterized using dynamic light scattering (DLS). […] Generally, both processes seem to have increased the measured radii with this effect being more pronounced for the worm-forming constructs.
Apart from changes in nanoparticle morphology we were particularly interested in the effect pAzF-crosslinking had on their stability. […] GuHCl is a well-known denaturing agent that disrupts any inter- and intramolecular electrostatic forces and completely breaks down the quaternary, tertiary and secondary structure of most known proteins. Covalent bonds—such as the ones formed by pAzF-crosslinking—however remain unaffected by GuHCl, thus, the addition of this denaturing agent was expected to give us insights on the stability of our crosslinked nanoparticles. […] All native samples on the other hand resorted to complete unimerization upon exposure to GuHCl. As the Rh values for the crosslinked particles in GuHCl were generally larger than in PBS, the DLS data furthermore indicates a swelling behavior in the presence of the denaturing agent. This can most probably be attributed to the RLP core which is assumed to be completely collapsed in PBS but will however try to reach an elongated, random-coil morphology in the presence of GuHCl.
The first step of the characterization process was to produce crosslinked particles for the functionalized diblock constructs and to analyze whether the attachment of the ligands had caused any significant changes in particle size. […] Whatever the reason was, it had no effect on the crosslinking process as the particles still remained stable after GuHCl exposure.
Dynamic light scattering of cross-linkable protein nanoparticles was performed. […] However, these crosslinked particles remain assembled, actually growing slightly in size due to chain swelling of the core and corona in this new buffer. These novel scaffolds support various targeting domains and assemble into nearly identically sized nanoparticles between […] in hydrodynamic radius.

[2] = Static and dynamic light scattering (SLS/DLS) of block co-polypeptides; conditions: Table 5; for Nagg / Rg(nm) / Rh (nm): 10 μM in PBS, 15 °C; for ρ: shape factor Rg/Rh
Method: Key parameters of interest are the hydrophilicity of the corona-forming block, the hydrophilicity of the core block, the overall length of the co-polypeptide and the ratio of the two blocks. Parameters of evaluation are the size, morphology, stability, and thermoresponsive behavior. All measurements were made in 140 mM NaCl, 10 mM phosphate buffer, 3 mM KCl, pH 7.4 unless otherwise specified. Size was evaluated by the hydrodynamic radios (Rh) and radius of gyration (Rg) by dynamic light scattering (DLS) and static light scattering (SLS) respectively. Rg and Rh can be combined to yield the shape factor ρ=Rg/Rh, which provides a rough indication of the morphology of the scatterer. […] For an elongated scatterer, the shape factor depends upon the aspect ratio. A combination of temperature dependent turbidity and DLS was utilized to determine the phase behavior of the block co-polypeptides. Cryogenic transmission electron microscopy (Cryo-TEM) was utilized to evaluate the morphology and provide crucial insight into the hydration of the core/corona chains. Stability of the assembled nanostructure was determined by a shift in the I1/I3 fluorescent bands of pyrene as described previously.
Static and dynamic light scattering measurements (SLS/DLS) were performed using an ALV/CGS-3 goniometer system (Langen, Germany). Samples for the ALV/CGS-3 goniometer system were prepared at a concentration of 10 μM in PBS and filtered through 0.45 μm Millex-GV filters into a 10 mm disposable borosilicate glass tube (Fischer). Simultaneous SLS and DLS measurements were obtained at 15° C. of the ELP for angles between 30°-150° at 5° increments, with each angle consisting of 3 runs for 15 s. SLS experiments were only conducted for self-assembling block co-polypeptides, since the molecular weight of a single block co-polypeptide chain is already known, and the Rg of a single chain is likely near or below the detection limit of the SLS instrument. The differential refractive index (dn/dc) was determined by measuring the refractive index at different concentrations using an Abbemat 500 refractometer (Anton Paar, Graz, Austria). DLS data were analyzed by fitting the autocorrelation function with a cumulant fit, using the built-in ALV software. Hydrodynamic radius (Rh) was plotted against angle and extrapolated to zero. SLS data were analyzed by partial Zimm plots using ALVSTAT software in order to determine the Rg and molecular weight (MW).

[3] = Cryo-TEM micelle core size, inter-core spacing and aspect ratio; conditions: Table 6, mean ± standard deviation; for Spacing (nm): inter-core spacing
Method: Using the data from FIG. 18, particularly the longest straight line of an individual particle and a corresponding perpendicular measurement were made to describe the aspect ratio of particles observed.
Cryo-TEM experiments were performed at Duke University's Shared Materials Instrumentation Facility (Durham, N.C.). Lacey holey carbon grids (Ted Pella, Redding, Calif.) were glow discharged in a PELCO EasiGlow Cleaning System (Ted Pella, Redding, Calif.). A 3 μL drop (10 μM RLPn-ELP80) was deposited onto the grid, blotted for 3 s with an offset of −3 mm, and vitrified in liquid ethane using the Vitrobot Mark III (FEI, Eindhoven, Netherlands). Prior to vitrification, the sample chamber was maintained at 15° C. and 100% relative humidity to prevent sample evaporation. Grids were transferred to a Gatan 626 cryoholder (Gatan, Pleasanton, Calif.) and imaged with a FEI Tecnai G2 Twin TEM (FEI, Eindhoven, Netherlands), operating at 80 keV. Feature sizes and spacing distances were measured in ImageJ by manual measurement of at least 25 particles.

Molecule	RH (nm) ([1]; 15 μm in 7.2M GuHCl, crosslinked)	RH (nm) ([1]; 15 μm in 7.2M GuHCl, native (not crosslinked))	RH (nm) ([1]; 15 μm in PBS, crosslinked)	RH (nm) ([1]; 15 μm in PBS, native (not crosslinked))	Nagg [2]	Rg(nm) [2] [nm]	Rh (nm) [2] [nm]	ρ [2]	Spacing (nm) [3] [nm]	Core radius (nm) [3] [nm]
UAA2-40: pAzF-containing sphere-forming diblock construct, two pAzF residues per polypeptide chain (protein) QYPSDGRGQYPSDGRGQYPSDGRGQYPSDGRGQYPSDGRGQYPSDGRGQYPSDGRGQYPSDGRGQYPSDGRGQYPSDGRGQYPSDGRGQYPSDGRGQYPSDGRGQYPSDGRGQYPSDGRGQYPSDGRGQYPSDGRGQYPSDGRGQYPSDGRGQYPSDGRG[Phe(4-N3)]QYPSDGRGQYPSDGRGQYPSDGRGQYPSDGRGQYPSDGRGQYPSDGRGQYPSDGRGQYPSDGRGQYPSDGRGQYPSDGRGQYPSDGRGQYPSDGRGQYPSDGRGQYPSDGRGQYPSDGRGQYPSDGRGQYPSDGRGQYPSDGRGQYPSDGRGQYPSDGRG[Phe(4-N3)]	54.1 ± 2.0	7.0 ± 1.1	29.8 ± 0.3	28.1 ± 0.2	–	–	–	–	–	–
RLP40-ELPS80: RLP-ELP block co-polypeptide with Ser guest residue in the corona (protein) QYPSDGRGQYPSDGRGQYPSDGRGQYPSDGRGQYPSDGRGQYPSDGRGQYPSDGRGQYPSDGRGQYPSDGRGQYPSDGRGQYPSDGRGQYPSDGRGQYPSDGRGQYPSDGRGQYPSDGRGQYPSDGRGQYPSDGRGQYPSDGRGQYPSDGRGQYPSDGRGQYPSDGRGQYPSDGRGQYPSDGRGQYPSDGRGQYPSDGRGQYPSDGRGQYPSDGRGQYPSDGRGQYPSDGRGQYPSDGRGQYPSDGRGQYPSDGRGQYPSDGRGQYPSDGRGQYPSDGRGQYPSDGRGQYPSDGRGQYPSDGRGQYPSDGRGQYPSDGRGGSGVPGSGVPGSGVPGSGVPGSGVPGSGVPGSGVPGSGVPGSGVPGSGVPGSGVPGSGVPGSGVPGSGVPGSGVPGSGVPGSGVPGSGVPGSGVPGSGVPGSGVPGSGVPGSGVPGSGVPGSGVPGSGVPGSGVPGSGVPGSGVPGSGVPGSGVPGSGVPGSGVPGSGVPGSGVPGSGVPGSGVPGSGVPGSGVPGSGVPGSGVPGSGVPGSGVPGSGVPGSGVPGSGVPGSGVPGSGVPGSGVPGSGVPGSGVPGSGVPGSGVPGSGVPGSGVPGSGVPGSGVPGSGVPGSGVPGSGVPGSGVPGSGVPGSGVPGSGVPGSGVPGSGVPGSGVPGSGVPGSGVPGSGVPGSGVPGSGVPGSGVPGSGVPGSGVPGSGVPGSGVPGSGVPGSGVPGSGVP	–	–	–	–	80	27.2	33.0	0.82	20.0 ± 2.6	13.1 ± 2.7
RLP80-ELPV80: RLP-ELP block co-polypeptide with Val guest residue in the corona (protein) QYPSDGRGQYPSDGRGQYPSDGRGQYPSDGRGQYPSDGRGQYPSDGRGQYPSDGRGQYPSDGRGQYPSDGRGQYPSDGRGQYPSDGRGQYPSDGRGQYPSDGRGQYPSDGRGQYPSDGRGQYPSDGRGQYPSDGRGQYPSDGRGQYPSDGRGQYPSDGRGQYPSDGRGQYPSDGRGQYPSDGRGQYPSDGRGQYPSDGRGQYPSDGRGQYPSDGRGQYPSDGRGQYPSDGRGQYPSDGRGQYPSDGRGQYPSDGRGQYPSDGRGQYPSDGRGQYPSDGRGQYPSDGRGQYPSDGRGQYPSDGRGQYPSDGRGQYPSDGRGQYPSDGRGQYPSDGRGQYPSDGRGQYPSDGRGQYPSDGRGQYPSDGRGQYPSDGRGQYPSDGRGQYPSDGRGQYPSDGRGQYPSDGRGQYPSDGRGQYPSDGRGQYPSDGRGQYPSDGRGQYPSDGRGQYPSDGRGQYPSDGRGQYPSDGRGQYPSDGRGQYPSDGRGQYPSDGRGQYPSDGRGQYPSDGRGQYPSDGRGQYPSDGRGQYPSDGRGQYPSDGRGQYPSDGRGQYPSDGRGQYPSDGRGQYPSDGRGQYPSDGRGQYPSDGRGQYPSDGRGQYPSDGRGQYPSDGRGQYPSDGRGQYPSDGRGQYPSDGRGGVGVPGVGVPGVGVPGVGVPGVGVPGVGVPGVGVPGVGVPGVGVPGVGVPGVGVPGVGVPGVGVPGVGVPGVGVPGVGVPGVGVPGVGVPGVGVPGVGVPGVGVPGVGVPGVGVPGVGVPGVGVPGVGVPGVGVPGVGVPGVGVPGVGVPGVGVPGVGVPGVGVPGVGVPGVGVPGVGVPGVGVPGVGVPGVGVPGVGVPGVGVPGVGVPGVGVPGVGVPGVGVPGVGVPGVGVPGVGVPGVGVPGVGVPGVGVPGVGVPGVGVPGVGVPGVGVPGVGVPGVGVPGVGVPGVGVPGVGVPGVGVPGVGVPGVGVPGVGVPGVGVPGVGVPGVGVPGVGVPGVGVPGVGVPGVGVPGVGVPGVGVPGVGVPGVGVPGVGVPGVGVPGVGVPGVGVPGVGVP	–	–	–	–	693	94.4	71.0	1.31	29.6 ± 3.8	14.2 ± 2.4
RLP80-ELPS80: RLP-ELP block co-polypeptide with Ser guest residue in the corona (protein) QYPSDGRGQYPSDGRGQYPSDGRGQYPSDGRGQYPSDGRGQYPSDGRGQYPSDGRGQYPSDGRGQYPSDGRGQYPSDGRGQYPSDGRGQYPSDGRGQYPSDGRGQYPSDGRGQYPSDGRGQYPSDGRGQYPSDGRGQYPSDGRGQYPSDGRGQYPSDGRGQYPSDGRGQYPSDGRGQYPSDGRGQYPSDGRGQYPSDGRGQYPSDGRGQYPSDGRGQYPSDGRGQYPSDGRGQYPSDGRGQYPSDGRGQYPSDGRGQYPSDGRGQYPSDGRGQYPSDGRGQYPSDGRGQYPSDGRGQYPSDGRGQYPSDGRGQYPSDGRGQYPSDGRGQYPSDGRGQYPSDGRGQYPSDGRGQYPSDGRGQYPSDGRGQYPSDGRGQYPSDGRGQYPSDGRGQYPSDGRGQYPSDGRGQYPSDGRGQYPSDGRGQYPSDGRGQYPSDGRGQYPSDGRGQYPSDGRGQYPSDGRGQYPSDGRGQYPSDGRGQYPSDGRGQYPSDGRGQYPSDGRGQYPSDGRGQYPSDGRGQYPSDGRGQYPSDGRGQYPSDGRGQYPSDGRGQYPSDGRGQYPSDGRGQYPSDGRGQYPSDGRGQYPSDGRGQYPSDGRGQYPSDGRGQYPSDGRGQYPSDGRGQYPSDGRGQYPSDGRGGSGVPGSGVPGSGVPGSGVPGSGVPGSGVPGSGVPGSGVPGSGVPGSGVPGSGVPGSGVPGSGVPGSGVPGSGVPGSGVPGSGVPGSGVPGSGVPGSGVPGSGVPGSGVPGSGVPGSGVPGSGVPGSGVPGSGVPGSGVPGSGVPGSGVPGSGVPGSGVPGSGVPGSGVPGSGVPGSGVPGSGVPGSGVPGSGVPGSGVPGSGVPGSGVPGSGVPGSGVPGSGVPGSGVPGSGVPGSGVPGSGVPGSGVPGSGVPGSGVPGSGVPGSGVPGSGVPGSGVPGSGVPGSGVPGSGVPGSGVPGSGVPGSGVPGSGVPGSGVPGSGVPGSGVPGSGVPGSGVPGSGVPGSGVPGSGVPGSGVPGSGVPGSGVPGSGVPGSGVPGSGVPGSGVPGSGVPGSGVP	–	–	–	–	392	36.0	49.4	0.73	27.9 ± 4.0	14.6 ± 2.2
